B1: Ly1965 (bispecific antibody)
chain 1: QVQLVQSGAEVKKPGASVKVSCKASGYTFTSYVMHWVRQKPGQGLEWIGYINPYNEGTESTDKFKGRATMTSDKSTSTVYMELSSLRSEDTAVYYCASIYYGYEGTYFGVWGQGTLVTVSSASTKGPSVFPLAPSSKSTSGGTAALGCLVKDYFPEPVTVSWNSGALTSGVHTFPAVLQSSGLYSLSSVVTVPSSSLGTQTYICNVNHKPSNTKVDKKVEPKSCGGGGSGGGGSGGGGSGGGGSEVQLVESGGGLVQPGGSLRLSCAASGFTFSTYAMNWVRQAPGKGLEWVGRIRSKYNNYATYYADSVKGRFTISRDDSKNSLYLQMNSLKTEDTAVYYCVRHGNFGNSYVSWFAYWGQGTLVTVSSGGGGSDKTHTCPPCPAPEAAGPSVFLFPPKPKDTLMISRTPEVTCVVVDVSHEDPEVKFNWYVDGVEVHNAKTKPREEQYNSTYRVVSVLTVLHQDWLNGKEYKCKVSNKALPAPIEKTISKAKGQPREPQVYTLPPSREEMTKNQVSLWCLVKGFYPSDIAVEWESNGQPENNYKTTPPVLDSDGSFFLYSKLTVDKSRWQQGNVFSCSVMHEALHNHYTQKSLSLSPG
chain 2: QVQLVQSGAEVKKPGASVKVSCKASGYTFTSYVMHWVRQKPGQGLEWIGYINPYNEGTESTDKFKGRATMTSDKSTSTVYMELSSLRSEDTAVYYCASIYYGYEGTYFGVWGQGTLVTVSSASTKGPSVFPLAPSSKSTSGGTAALGCLVKDYFPEPVTVSWNSGALTSGVHTFPAVLQSSGLYSLSSVVTVPSSSLGTQTYICNVNHKPSNTKVDKKVEPKSCGGGGSGGGGSGGGGSGGGGSQAVVTQEPSLTVSPGGTVTLTCRSSTGAVTTSNYANWVQQKPGQAPRGLIGGTNKRAPWTPARFSGSLLGGKAALTITGAQAEDEADYYCALWYSNLWVFGGGTKLTVLGGGGSDKTHTCPPCPAPEAAGPSVFLFPPKPKDTLMISRTPEVTCVVVDVSHEDPEVKFNWYVDGVEVHNAKTKPREEQYNSTYRVVSVLTVLHQDWLNGKEYKCKVSNKALPAPIEKTISKAKGQPREPQVYTLPPSREEMTKNQVSLSCAVKGFYPSDIAVEWESNGQPENNYKTTPPVLDSDGSFFLVSKLTVDKSRWQQGNVFSCSVMHEALHNRFTQKSLSLSPG
light: EIVLTQSPATLSLSPGERATLSCRASSSVSYMHWYQQKPGQAPRPWIYATSNLASGIPARFSGSRSGTDYTLTISSLEPEDFAVYYCQQWSSNTLTFGGGTKVEIKRTVAAPSVFIFPPSDEQLKSGTASVVCLLNNFYPREAKVQWKVDNALQSGNSQESVTEQDSKDSTYSLSSTLTLSKADYEKHKVYACEVTHQGLSSPVTKSFNRGEC
notes: Bispecific B7H3 (two Fabs) / CD3 (central Fv)
B2: Ly2405 (bispecific antibody, human IgG1, kappa)
heavy 1: not shown
heavy 2: QVTLKESGPALVKPTQTLTLTCTFSGFSLSTSGTCVSWIRQPPGKALEWLATICWEDSKGYNPSLKSRLTISKDTSKNQAVLTMTNMDPVDTATYYCARREDSGYFWFPYWGQGTLVTVSSASTKGPSVFPLAPSSKSTSGGTAALGCLVKDYFPEPVTVSWNSGALTSGVHTFPAVLQSSGLYSLSSVVTVPSSSLGTQTYICNVNHKPSNTKVDKKVEPKSCDKTHTCPPCPAPEAAGPSVFLFPPKPKDTLMISRTPEVTCVVVDVSHEDPEVKFNWYVDGVEVHNAKTKPREEQYNSTYRVVSVLTVLHQDWLNGKEYKCKVSNKALPAPIEKTISKAKGQPREPQVYTLPPSREEMTKNQVSLSCAVKGFYPSDIAVEWESNGQPENNYKTTPPVLDSDGSFFLVSKLTVDKSRWQQGNVFSCSVMHEALHNRFTQKSLSLSPGGGGGSGGGGSGGGGSGGGGSDIQMTQSPSSVSASVGDRVTITCRASQGIYSWLAWYQQKPGKAPNLLIYTASTLQSGVPSRFSGSGSGTDFTLTISSLQPEDFATYYCQQANIFPLTFGGGTKVEIK
light: NIQMTQSPSSLSASVGDRVTITCKAGQNVNNYLAWYQQKPGKAPKVLIFNANSLQTGVPSRFSGSGSGTDFTLTISSLQPEDFATYYCQQYNSWPTFGGGTKVEIKRTVAAPSVFIFPPSDEQLKSGTASVVCLLNNFYPREAKVQWKVDNALQSGNSQESVTEQDSKDSTYSLSSTLTLSKADYEKHKVYACEVTHQGLSSPVTKSFNRGEC
notes: PD-1 Fabs (Ly516) x terminal CD40 Fv (TM383)
B3: Ly2409 (bispecific antibody)
heavy 1: QVTLKESGPALVKPTQTLTLTCTFSGFSLSTSGTCVSWIRQPPGKALEWLATICWEDSKGYNPSLKSRLTISKDTSKNQAVLTMTNMDPVDTATYYCARREDSGYFWFPYWGQGTLVTVSSASTKGPSVFPLAPSSKSTSGGTAALGCLVKDYFPEPVTVSWNSGALTSGVHTFPAVLQSSGLYSLSSVVTVPSSSLGTQTYICNVNHKPSNTKVDKKVEPKSCGGGGSGGGGSGGGGSGGGGSEVQLVESGGGLVQPGGSLRLSCAASGFTFTNYGLHWVRQAPGKGLEWVSSISPSGGVTYYRDSVKGRFTISRDNSKNTLYLQMNSLRAEDTAVYYCAKPFLGWGGANWIAHWGQGTLVTVSSGGGGSDKTHTCPPCPAPEAAGPSVFLFPPKPKDTLMISRTPEVTCVVVDVSHEDPEVKFNWYVDGVEVHNAKTKPREEQYNSTYRVVSVLTVLHQDWLNGKEYKCKVSNKALPAPIEKTISKAKGQPREPQVYTLPPSREEMTKNQVSLWCLVKGFYPSDIAVEWESNGQPENNYKTTPPVLDSDGSFFLYSKLTVDKSRWQQGNVFSCSVMHEALHNHYTQKSLSLSPG
heavy 2: QVTLKESGPALVKPTQTLTLTCTFSGFSLSTSGTCVSWIRQPPGKALEWLATICWEDSKGYNPSLKSRLTISKDTSKNQAVLTMTNMDPVDTATYYCARREDSGYFWFPYWGQGTLVTVSSASTKGPSVFPLAPSSKSTSGGTAALGCLVKDYFPEPVTVSWNSGALTSGVHTFPAVLQSSGLYSLSSVVTVPSSSLGTQTYICNVNHKPSNTKVDKKVEPKSCGGGGSGGGGSGGGGSGGGGSDIQMTQSPSSLSASVGDRVTITCLASEDISNDLAWYQQKPGKAPKLLIYFVDRLLDGVPSRFSGSGSGTDFTLTISSLQPEDFATYYCQQSYKYPPTFGQGTKLEIKGGGGSDKTHTCPPCPAPEAAGPSVFLFPPKPKDTLMISRTPEVTCVVVDVSHEDPEVKFNWYVDGVEVHNAKTKPREEQYNSTYRVVSVLTVLHQDWLNGKEYKCKVSNKALPAPIEKTISKAKGQPREPQVYTLPPSREEMTKNQVSLSCAVKGFYPSDIAVEWESNGQPENNYKTTPPVLDSDGSFFLVSKLTVDKSRWQQGNVFSCSVMHEALHNRFTQKSLSLSPG
light: B2 light
notes: PD-1 Fabs (Ly516) x central CD40 Fv (TM559)
B4: Ly2415 (bispecific antibody, human IgG1, kappa)
heavy 1: QVTLKESGPALVKPTQTLTLTCTFSGFSLSTSGTCVSWIRQPPGKALEWLATICWEDSKGYNPSLKSRLTISKDTSKNQAVLTMTNMDPVDTATYYCARREDSGYFWFPYWGQGTLVTVSSASTKGPSVFPLAPSSKSTSGGTAALGCLVKDYFPEPVTVSWNSGALTSGVHTFPAVLQSSGLYSLSSVVTVPSSSLGTQTYICNVNHKPSNTKVDKKVEPKSCDKTHTCPPCPAPEAAGPSVFLFPPKPKDTLMISRTPEVTCVVVDVSHEDPEVKFNWYVDGVEVHNAKTKPREEQYNSTYRVVSVLTVLHQDWLNGKEYKCKVSNKALPAPIEKTISKAKGQPREPQVYTLPPSREEMTKNQVSLWCLVKGFYPSDIAVEWESNGQPENNYKTTPPVLDSDGSFFLYSKLTVDKSRWQQGNVFSCSVMHEALHNHYTQKSLSLSPGGGGGSGGGGSGGGGSGGGGSEVQLVESGGGLVQPGGSLRLSCAASGFTFTNYGLHWVRQAPGKGLEWVSSISPSGGVTYYRDSVKGRFTISRDNSKNTLYLQMNSLRAEDTAVYYCAKPFLGWGGANWIAHWGQGTLVTVSS
heavy 2: QVTLKESGPALVKPTQTLTLTCTFSGFSLSTSGTCVSWIRQPPGKALEWLATICWEDSKGYNPSLKSRLTISKDTSKNQAVLTMTNMDPVDTATYYCARREDSGYFWFPYWGQGTLVTVSSASTKGPSVFPLAPSSKSTSGGTAALGCLVKDYFPEPVTVSWNSGALTSGVHTFPAVLQSSGLYSLSSVVTVPSSSLGTQTYICNVNHKPSNTKVDKKVEPKSCDKTHTCPPCPAPEAAGPSVFLFPPKPKDTLMISRTPEVTCVVVDVSHEDPEVKFNWYVDGVEVHNAKTKPREEQYNSTYRVVSVLTVLHQDWLNGKEYKCKVSNKALPAPIEKTISKAKGQPREPQVYTLPPSREEMTKNQVSLSCAVKGFYPSDIAVEWESNGQPENNYKTTPPVLDSDGSFFLVSKLTVDKSRWQQGNVFSCSVMHEALHNRFTQKSLSLSPGGGGGSGGGGSGGGGSGGGGSDIQMTQSPSSLSASVGDRVTITCLASEDISNDLAWYQQKPGKAPKLLIYFVDRLLDGVPSRFSGSGSGTDFTLTISSLQPEDFATYYCQQSYKYPPTFGQGTKLEIK
light: B2 light
notes: PD-1 Fabs (Ly516) x terminal CD40 Fv (TM559)

Assays:
[1] = biological target: T1, B7H3 (UniProt Q5ZPR3 29-466, limits assumed); test: FCM or ELISA (graded summary table)
T1 sequence (looked up): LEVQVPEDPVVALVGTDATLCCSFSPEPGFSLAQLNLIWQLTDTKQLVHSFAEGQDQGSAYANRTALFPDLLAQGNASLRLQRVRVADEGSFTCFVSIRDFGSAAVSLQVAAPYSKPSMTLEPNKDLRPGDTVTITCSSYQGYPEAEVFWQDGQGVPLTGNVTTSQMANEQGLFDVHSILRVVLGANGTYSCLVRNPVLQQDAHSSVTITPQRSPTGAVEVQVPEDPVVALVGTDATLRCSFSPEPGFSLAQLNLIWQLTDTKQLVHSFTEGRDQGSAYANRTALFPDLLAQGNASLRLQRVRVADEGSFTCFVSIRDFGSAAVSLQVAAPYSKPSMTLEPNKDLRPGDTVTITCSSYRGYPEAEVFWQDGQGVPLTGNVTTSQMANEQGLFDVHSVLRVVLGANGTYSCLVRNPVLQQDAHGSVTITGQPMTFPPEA

[2] = biological target: CD40 (UniProt P25942 21-193, limits assumed); test: FCM or ELISA, graded
Chain of CD40 (P25942 21-193 limits assumed): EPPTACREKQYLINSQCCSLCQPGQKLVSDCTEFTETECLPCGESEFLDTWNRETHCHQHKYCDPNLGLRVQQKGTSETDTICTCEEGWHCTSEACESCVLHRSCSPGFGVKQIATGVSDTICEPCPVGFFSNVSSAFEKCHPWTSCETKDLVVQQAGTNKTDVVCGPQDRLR

[3] = biological target: PD-1 (binding assay) (UniProt Q15116 25-167, limits assumed); test: FCM or ELISA, graded
Chain of PD-1 (binding assay) (Q15116 25-167 limits assumed): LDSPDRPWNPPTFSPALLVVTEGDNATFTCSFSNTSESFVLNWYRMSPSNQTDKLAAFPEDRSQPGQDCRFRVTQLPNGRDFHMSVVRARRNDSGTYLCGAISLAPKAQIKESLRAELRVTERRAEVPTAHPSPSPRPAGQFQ

Binder | binding result [1] | binding result [2] | binding result [3]
B1 | binds | – | –
B2 | – | binds | binds
B3 | – | binds | binds
B4 | – | binds | binds

From patent publication US20250388669A1 (published 2025)
